Tested on: p53 (full-length human) (Homo sapiens)
Experiment: AFM
Settings: AFM on mica, 'physiological buffer conditions', binding buffer and temperature not given in the material, DNA stock in 10 mM Tris-HCl pH 7.6, 1 mM EDTA

Substance | Kd (logistic fit of site occupancy against p53 18.9-56.6 nM, DNA 1 ng/uL) | Kd (stated as approximately the same Kd as for 20,000 bp DNA, p53 18.9-56.6 nM)
20,000 bp DNA | 328 nM | –
5000 bp DNA | – | 328 nM
